Reference: patent US20260159551A1 (SRI INTERNATIONAL, published 2026)
Ends that are not written are not given here.

B1: MTS2_V1-2 (biotinylated dimeric Ac-FPSWTSKNQQWTNQRQ) (peptide)
peptide: Ac-FPSWTSKNQQWTNQRQ
modifications: also: dimer: C-terminus joined through a linker to a dimeric core, biotinylated, place not given here
notes: Biotinylated for the ELISA and for capture on the streptavidin probe in BLI; also called dimer version of MTS2_V1; biotinylated MTS2_V1-2
B2: MTS3_V1-2 (biotinylated dimeric Ac-SKETYSMNAQRQHERS) (peptide)
peptide: Ac-SKETYSMNAQRQHERS
modifications: also: dimer: C-terminus joined through a linker to a dimeric core, biotinylated, place not given here
notes: Biotinylated for the ELISA; also called dimer version of MTS3_V1; biotinylated MTS3_V1-2

Tests used:
[1] = target: T1, Recombinant human transferrin receptor (human, UniProt P02786 89-760, limits assumed); assay: biolayer interferometry (OctetRED 96); biotinylated peptide on streptavidin probe, receptor as analyte; human transferrin receptor
T1 construct: Recombinant protein; also called transferrin receptor (human protein)
T1 sequence (P02786 89-760 limits assumed): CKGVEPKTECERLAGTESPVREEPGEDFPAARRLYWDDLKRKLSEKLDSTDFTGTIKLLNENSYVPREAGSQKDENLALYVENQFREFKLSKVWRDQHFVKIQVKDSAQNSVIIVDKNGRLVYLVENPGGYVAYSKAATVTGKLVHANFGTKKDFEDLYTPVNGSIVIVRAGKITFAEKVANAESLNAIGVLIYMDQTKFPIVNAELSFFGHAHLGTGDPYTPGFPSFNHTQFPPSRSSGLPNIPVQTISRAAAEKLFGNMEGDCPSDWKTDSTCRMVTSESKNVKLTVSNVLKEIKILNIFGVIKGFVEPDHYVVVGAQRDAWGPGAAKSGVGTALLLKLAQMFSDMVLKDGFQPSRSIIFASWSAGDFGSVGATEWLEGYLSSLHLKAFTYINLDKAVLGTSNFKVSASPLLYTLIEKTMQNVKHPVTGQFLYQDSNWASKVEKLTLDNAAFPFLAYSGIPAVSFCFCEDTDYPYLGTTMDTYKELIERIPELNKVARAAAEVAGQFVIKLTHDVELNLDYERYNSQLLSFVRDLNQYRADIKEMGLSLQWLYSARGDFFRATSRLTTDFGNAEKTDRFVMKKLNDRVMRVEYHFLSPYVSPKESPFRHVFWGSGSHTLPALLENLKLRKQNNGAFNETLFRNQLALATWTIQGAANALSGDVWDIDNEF
Experimental: (§1) Recombinant human transferrin receptor was absorbed onto high binding ELISA plates at 1 μg/mL. […] Retained MTS peptide was detected using streptavidin-HRP and TMB reagent. The absorbance was measured at 450 nm and is proportional to the amount of MTS peptide captured by transferrin receptor. As shown, MTS2_V1-2 binds to […] in a concentration dependent manner which saturates at higher concentrations. By comparison, MTS3_V1-2 and a scrambled control peptide of MTS2_V1-2 show no binding. The binding affinity of MTS2_V1-2 for transferrin receptor was determined by biolayer interferometry on a OctetRED 96 system. The biotinylated MTS2_V1-2 peptide was captured on streptavidin probe. The kon and koff rate were determined at various concentrations of human or mouse transferrin receptor allowing for determination of the dissociation constant.

[2] = target: T1, Recombinant human transferrin receptor; assay: ELISA: recombinant human transferrin receptor coated at 1 ug/mL, biotinylated peptide titrated, detection with streptavidin-HRP/TMB, absorbance at 450 nm
Experimental: as §1

[3] = target: T2, Mouse transferrin receptor (mouse, UniProt Q62351 89-763, limits assumed); assay: biolayer interferometry (OctetRED 96); biotinylated peptide on streptavidin probe, receptor as analyte; mouse transferrin receptor
T2 construct: Used as the analyte in BLI; also called mouse receptor
T2 sequence (Q62351 89-763 limits assumed): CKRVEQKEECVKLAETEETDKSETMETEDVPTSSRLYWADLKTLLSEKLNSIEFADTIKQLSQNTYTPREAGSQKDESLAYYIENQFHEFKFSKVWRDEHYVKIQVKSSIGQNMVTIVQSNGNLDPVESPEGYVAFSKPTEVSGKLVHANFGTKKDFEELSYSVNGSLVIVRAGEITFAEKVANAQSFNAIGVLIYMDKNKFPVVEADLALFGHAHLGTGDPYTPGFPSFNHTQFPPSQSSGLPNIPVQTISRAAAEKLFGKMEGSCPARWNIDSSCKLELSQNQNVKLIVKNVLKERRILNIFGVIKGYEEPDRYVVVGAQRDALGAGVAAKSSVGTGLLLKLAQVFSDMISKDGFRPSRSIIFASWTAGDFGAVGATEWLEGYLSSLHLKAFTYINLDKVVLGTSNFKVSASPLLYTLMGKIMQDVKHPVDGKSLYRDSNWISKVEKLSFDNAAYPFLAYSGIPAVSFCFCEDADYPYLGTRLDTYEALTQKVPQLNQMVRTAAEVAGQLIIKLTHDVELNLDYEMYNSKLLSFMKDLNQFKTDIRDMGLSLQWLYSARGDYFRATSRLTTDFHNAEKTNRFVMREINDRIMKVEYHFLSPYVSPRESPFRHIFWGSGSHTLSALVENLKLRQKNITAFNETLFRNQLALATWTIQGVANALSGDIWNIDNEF
Experimental: as §1

Binder	Kd [1] [nM]	EC50 (read off the curve) [2] [nM]	Kd [3] [nM]	binding result [2]
B1	210	~100	12	
B2				no binding (tested: 1000 nM)
